Data as given in PMC3553970.

Substrate: N[C@@H](Cc1ccc(O)cc1)C(=O)O
Assay: purified protein
Conditions: amino acid activation, ATP, no tRNA, 37°C, near-cognate amino acid

B1: M. mobile PheRS (MmPheRS) (Mycoplasma mobile 163K) (protein)
chain: MKKNLTNLRIETLEDLKIAKSNFLNNDLELKQLMNDLKLASKEQKASIGQKINFYKQEIEQFFLTKKEEIEKKEVLKKIQDEFIDVFEEVNFSSSLHPLTLIENRFRTWFLNNGYYETEGSEITTDKINFELLNIPKDHPSRDMQDSLYLEKEQNGDQLLLRTHNTGFSIIELIKNKNKAFSAFSIGKVYRNDEDDNTHSHQFSQVDVIVAGKYNFPNLMWLLKSLLSYVFEEEVKIRLRPSYFPFTEPSCEVDVFYKNKWIEVLGSGIIHENVMKAAGYTNDMNALAWGIGIERIAMIKYGIDNIREFYKNDIRFLKQFNLEIEKLEV
With B1 the Km was 3.9 ± 0.54 mM, the kcat was 8 s⁻¹ and the kcat/Km was 2100 M⁻¹ s⁻¹.
